In patent US20170216434A1 (WAYNE STATE UNIVERSITY, published 2017):
Blank lines part the entries; values can stand above or below the binder they belong to.

Tests used:
[1] = target: Very late antigen-4 (VLA-4), alpha4beta1 integrin, on the surface of human reticulocytes and mononuclear leukocytes (human) (UniProt P13612); assay: cell-based or functional assay
[2] = target: Very late antigen-4 (VLA-4), alpha4beta1 integrin, on the surface of human reticulocytes and mononuclear leukocytes (human) (UniProt P13612); assay: flow cytometry saturation binding on isolated RBCs from 5 SCD donors
[3] = target: Very late antigen-4 (VLA-4), alpha4beta1 integrin, on the surface of human reticulocytes and mononuclear leukocytes (human) (UniProt P13612); assay: flow cytometry saturation binding on isolated RBCs, individual SCD donors
[4] = target: Very late antigen-4 (VLA-4), alpha4beta1 integrin, on the surface of human reticulocytes and mononuclear leukocytes (human) (UniProt P13612); assay: flow cytometry saturation binding on isolated RBCs (reticulocytes) from 5 SCD donors, one-site binding analysis
[5] = target: T1, Very late antigen-4 (VLA-4), alpha4beta1 integrin, on the surface of human reticulocytes and mononuclear … (human, UniProt P13612 34-1032; P05556 21-798); assay: cell-based or functional assay
[6] = target: T1, Very late antigen-4 (VLA-4), …; assay: flow cytometry saturation binding on isolated RBCs (reticulocytes) from 5 SCD donors, one-site binding analysis
Protocol: Flow cytometry was carried out using the BD FACS Canto II and data analysis was performed with the FACS Diva software. Data for leukocytes was acquired by gating based on forward and side scatter properties and CD45 staining of mononuclear cells. Natalizumab and IgG4 staining of the CD45 positive mononuclear cells were then determined. For erythrocytes, cells were gated for CD235a positive staining and examined for thiazole orange stained reticulocytes. Reticulocyte staining for VLA-4 with either natalizumab or an anti CD29 antibody was then determined and compared to IgG4 or isotype matched control antibody.
Fab arm exchange with endogenous IgG4 in humans, resulting in the production of antibodies that are potentially bispecific (Labrijn AF et al. Nat Biotechnol. 27(8):767-71 2009). This phenomenon has been reported for natalizumab as well, leading to the formation of a monovalent form of the antibody, with only one Fab arm specific for the α-subunit of VLA-4 (Rispens T et al. Anal Biochem. 411(2):271-6 2011; Shapiro RI et al. J Pharm Biomed Anal. 55(1):168-75 2011). To assess the impact of half-antibody exchange of natalizumab on saturation and adhesion of sickle cells, a synthetic monovalent form of natalizumab was used where 1 Fab arm was specific for VLA-4 and the other for CD4. […]

IC50 for inhibition of adhesion of reticulocytes in isolated RBC to VCAM-1 [1]: 0.37 µg/mL
fold change of adhesion-inhibition IC50 against the divalent form [1]: 19 fold
potency in blocking reticulocyte adhesion to VCAM-1 against divalent natalizumab (from IC50) [1]: 10 fold
fold change of EC50 against the divalent form [2]: 7 fold
fold change of EC50 against the divalent form [3]: 1.7 to 12 fold
EC50 [4]: 0.89 µg/mL
B1: synthetic monovalent form of natalizumab where 1 Fab arm was specific for VLA-4 and the other for CD4 (bispecific antibody, part only; not given: anti-CD4 arm and constant regions, V domains shown, not shown: another chain or arm of the molecule; a dimerising Fc or GST)
VH: QVQLVQSGAEVKKPGASVKVSCKASGFNIKDTYIHWVRQAPGQRLEWMGRIDPANGYTKYDPKFQGRVTITADTSASTAYMELSSLRSEDTAVYYCAREGYYGNYGVYAMDYWGQGTLVTVSS
VL: DIQMTQSPSSLSASVGDRVTITCKTSQDINKYMAWYQQTPGKAPRLLIHYTSALQPGIPSRFSGSGSGRDYTFTISSLQPEDIATYYCLQYDNLWTFGQGTKVEIK

IC50 for blocking adhesion of whole blood leukocytes to VCAM-1 under flow, adult SCD blood [5]: 0.05 µg/mL
IC50 for blocking adhesion of whole blood reticulocytes to VCAM-1 under flow, adult SCD blood [5]: 0.02 µg/mL
IC50 for inhibition of adhesion of reticulocytes in isolated RBC to VCAM-1 [5]: 0.02 µg/mL
EC50 [6]: 0.14 µg/mL
B2: Natalizumab (antibody, V domains shown)
VH: B1 VH
VL: B1 VL
notes: also called divalent natalizumab; divalent form
